Experimental data published in the supplement of paper PMC10126150.
± gives the standard deviation of the averaged measurements.

Tested on: ATP
Assay: switch fluorescence ratio, 500 uM ATP over buffer (Cy3 cluster intensity, sum of 5 cycles each) (fold (ratio)); higher = stronger signal-on switching upon ATP binding; sequences stand for … in TCGTCGGCAGCGTCAGATGTGTATAAGAGACAGTTTTTTTTTTTTTTTTTTTTTTTTT…TC
Details: aptamer strand: ATP DNA aptamer (quencher-CACCTGGGGGAGTATTGCGGAGGAAGG + anchor), 100 nM annealed; ATP concentration: 500 uM
Procedure, shortened: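 Imaging in selection buffer was followed by imaging after 15 min with 500 uM ATP at 22 °C, for Cy3-labelled switching-strand clusters annealed to 100 nM quencher-labelled ATP aptamer on a modified Illumina MiSeq flow-cell. Five of these buffer/ATP cycles ran, separated by NaOH stripping and re-annealing. The fluorescence ratio per cluster is summed target-cycle over summed buffer-cycle Cy3 intensity, averaged per switch-domain sequence; clusters outside 100-1000 RFU were removed.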
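Note: ATP exposure 15 min at 22 °C before imaging.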

CGTCGGAGTG
switch fluorescence ratio: 1.01 ± 0.022

TGATAACTCC
switch fluorescence ratio: 1.03 ± 0.036

TGGGTTACAT
switch fluorescence ratio: 1.01 ± 0.031

ATACACAATT
switch fluorescence ratio: 1.08 ± 0.054

GCCGGGCTTG
switch fluorescence ratio: 1.02 ± 0.017

TTTCGTGGAC
switch fluorescence ratio: 1.08 ± 0.015

ACGTCGCATG
switch fluorescence ratio: 1.09 ± 0.046

TTTGACGTTT
switch fluorescence ratio: 1.02 ± 0.059

TTTAGGCCGT
switch fluorescence ratio: 1.05 ± 0.066

TACTATGTTG
switch fluorescence ratio: 1.02 ± 0.065

GGGTTCAAGG
switch fluorescence ratio: 0.995 ± 0.048

TTAGTGTCTT
switch fluorescence ratio: 0.976 ± 0.025

AAACAAGCTT
switch fluorescence ratio: 1.02 ± 0.021

TTCAGGGGAG
switch fluorescence ratio: 0.975 ± 0.04

TTGCGGAGGG
switch fluorescence ratio: 1.01 ± 0.069

GGGGGACTTC
switch fluorescence ratio: 1.005 ± 0.01

CGCAGCTATT
switch fluorescence ratio: 3.56 ± 2.1

ATTTAATTAA
switch fluorescence ratio: 1.02 ± 0.056

GGGGTTTGTA
switch fluorescence ratio: 0.98 ± 0.027

GTGAAAGGGA
switch fluorescence ratio: 1.03 ± 0.017

AGGCTTTGCA
switch fluorescence ratio: 0.992 ± 0.01

GAGTATGTGG
switch fluorescence ratio: 0.9516 ± 0.0029

TTTTAATTT
switch fluorescence ratio: 0.997 ± 0.042

ACTGGGGGCG
switch fluorescence ratio: 1.03 ± 0.053

TCTGTCCAGC
switch fluorescence ratio: 0.9775 ± 0.0046

AAGGGGGAAC
switch fluorescence ratio: 1.002 ± 0.0052

TATTGTGAAA
switch fluorescence ratio: 0.988 ± 0.012

CCTATGATTG
switch fluorescence ratio: 0.981 ± 0.023

GTGCCCGGAT
switch fluorescence ratio: 0.9846 ± 0.0065

TCCTTGGGTT
switch fluorescence ratio: 1.016 ± 0.0099

TTTTGCTGTT
switch fluorescence ratio: 0.987 ± 0.033

TTTTGAGGT
switch fluorescence ratio: 1.02 ± 0.03

CAAGTAAAAG
switch fluorescence ratio: 1.01 ± 0.011

CCAAACGATT
switch fluorescence ratio: 1.02 ± 0.027

GCAAGGAGGG
switch fluorescence ratio: 1.05 ± 0.14

TTTGGGCAGT
switch fluorescence ratio: 1 ± 0.017

TTTACGGAGA
switch fluorescence ratio: 1.03 ± 0.041

ACGAGAGAAA
switch fluorescence ratio: 0.974 ± 0.017

TATGGAGTTG
switch fluorescence ratio: 0.992 ± 0.032

CTGTAGTCTG
switch fluorescence ratio: 1.11 ± 0.019

ATGCGTCGGA
switch fluorescence ratio: 1.032 ± 0.0066

TGGTTTATGG
switch fluorescence ratio: 1.01 ± 0.02

TATTTGGATG
switch fluorescence ratio: 1.03 ± 0.069

AGAAGGGATT
switch fluorescence ratio: 1.03 ± 0.015

TTTAGATGTG
switch fluorescence ratio: 1 ± 0.014

TTATTGTTGG
switch fluorescence ratio: 0.974 ± 0.014

TGACGTTCAG
switch fluorescence ratio: 0.996 ± 0.02

TTCGGTCGGG
switch fluorescence ratio: 0.987 ± 0.028

TGTTAAAATC
switch fluorescence ratio: 0.984 ± 0.058

TAGAAATTGG
switch fluorescence ratio: 1.03 ± 0.03

CTATGGGCCG
switch fluorescence ratio: 0.972 ± 0.028

TTCGCTGGTA
switch fluorescence ratio: 1.15 ± 0.22

AAGGGGCAAT
switch fluorescence ratio: 1.01 ± 0.055

AGGTGGGGGA
switch fluorescence ratio: 0.995 ± 0.031

AGCGCAGTTT
switch fluorescence ratio: 0.999 ± 0.021

CGGAAATAT
switch fluorescence ratio: 1.023 ± 0.0046

GCATTGGGGT
switch fluorescence ratio: 0.994 ± 0.012

TGTATGGGAA
switch fluorescence ratio: 0.9352 ± 0.0043

TGAGTGTGGG
switch fluorescence ratio: 0.99 ± 0.03

CGGGTGTGGC
switch fluorescence ratio: 1.05 ± 0.015

CGTGTGGCGA
switch fluorescence ratio: 1.06 ± 0.015

GGATGGTAGC
switch fluorescence ratio: 1.01 ± 0.013

TGGCAAATGT
switch fluorescence ratio: 0.9818 ± 0.0049

CAGGGAGACG
switch fluorescence ratio: 1.12 ± 0.047

GTAAAAGGGG
switch fluorescence ratio: 0.996 ± 0.042

AAGTATGGGG
switch fluorescence ratio: 0.978 ± 0.021

CCGTCGGGGT
switch fluorescence ratio: 1.09 ± 0.025

ATGGGGTGCG
switch fluorescence ratio: 0.9998 ± 0.0014

CAGTAATTTT
switch fluorescence ratio: 0.999 ± 0.013

GGCTGTTAAG
switch fluorescence ratio: 0.983 ± 0.0028

TCGTCTCTTT
switch fluorescence ratio: 0.986 ± 0.018

AGGGAGGCAG
switch fluorescence ratio: 1 ± 0.033

ACCCGTACAT
switch fluorescence ratio: 1.11 ± 0.022

TAGGAGGTCC
switch fluorescence ratio: 0.96 ± 0.081

GCTTTACCAG
switch fluorescence ratio: 0.989 ± 0.013

AGATGGATTA
switch fluorescence ratio: 1.025 ± 0.0024

TAGGGGCCTG
switch fluorescence ratio: 0.9831 ± 0.0098

GAATTTAAAA
switch fluorescence ratio: 0.9747 ± 0.0071

TTTAGCTTGT
switch fluorescence ratio: 0.972 ± 0.011

CGCCTTGGGG
switch fluorescence ratio: 1 ± 0.05

TGTACTTTGG
switch fluorescence ratio: 1.01 ± 0.022

GGCCGGGGTA
switch fluorescence ratio: 1 ± 0.046

TGAATTTATA
switch fluorescence ratio: 1.024 ± 0.0093

AAGGATTAGC
switch fluorescence ratio: 1.04 ± 0.11

TGGGGAACAC
switch fluorescence ratio: 0.995 ± 0.043

GGAAAGGTCG
switch fluorescence ratio: 1.04 ± 0.039

GTGGATTATT
switch fluorescence ratio: 0.993 ± 0.05

TGGGTTCGTA
switch fluorescence ratio: 0.994 ± 0.031

GGGGTTTTCC
switch fluorescence ratio: 1.01 ± 0.014

GGGCATTGCT
switch fluorescence ratio: 0.9747 ± 0.0069

GATTGGTGGG
switch fluorescence ratio: 1.003 ± 0.0041

GTGAGTGGCA
switch fluorescence ratio: 0.986 ± 0.029

AACTACGCTT
switch fluorescence ratio: 1.48 ± 0.099

TACAAGTTTG
switch fluorescence ratio: 0.9965 ± 0.0053

TTTGTTGCTC
switch fluorescence ratio: 1 ± 0.03

GGCGGAGTGC
switch fluorescence ratio: 1.01 ± 0.027

TATAGGTAAT
switch fluorescence ratio: 1.03 ± 0.011

TGCTGTGGGA
switch fluorescence ratio: 0.9689 ± 0.006

CCTGTTTATT
switch fluorescence ratio: 0.974 ± 0.012

TGTGGGGGTC
switch fluorescence ratio: 0.965 ± 0.042

GTTTGAGGCG
switch fluorescence ratio: 1 ± 0.012

ATTTTAGTGT
switch fluorescence ratio: 0.968 ± 0.029

AAATTAGAGG
switch fluorescence ratio: 1 ± 0.026

CGTGTTGGGG
switch fluorescence ratio: 0.971 ± 0.039

CATATTGGGA
switch fluorescence ratio: 0.996 ± 0.032

TTGGGGTTAG
switch fluorescence ratio: 0.988 ± 0.017

AGAAATGTTA
switch fluorescence ratio: 1.024 ± 0.0063

ATGCCTCGGG
switch fluorescence ratio: 1.02 ± 0.032

TGGATCAAAT
switch fluorescence ratio: 0.9705 ± 0.0049

TCAACGAATG
switch fluorescence ratio: 0.994 ± 0.08

GGGACCGACT
switch fluorescence ratio: 1.05 ± 0.016

GGGGCCACTG
switch fluorescence ratio: 1.02 ± 0.023

TAAAGTGGGC
switch fluorescence ratio: 1.04 ± 0.038

ATGGTTATGT
switch fluorescence ratio: 1.03 ± 0.026

AAGCGGAAGG
switch fluorescence ratio: 1.05 ± 0.02

CTCTGGGCAT
switch fluorescence ratio: 2.2 ± 1.9

TGGTTAACAG
switch fluorescence ratio: 0.999 ± 0.022

GAAGTTCCCA
switch fluorescence ratio: 0.979 ± 0.011

TTCAATGGGC
switch fluorescence ratio: 0.998 ± 0.064

GGTGGTAGGA
switch fluorescence ratio: 0.98 ± 0.041

CATTGTGGGC
switch fluorescence ratio: 0.9621 ± 0.0034

TAGAGGCGAA
switch fluorescence ratio: 1 ± 0.011

TCTGTGATCT
switch fluorescence ratio: 1.01 ± 0.021

GGTTATCGGC
switch fluorescence ratio: 1.01 ± 0.017

CTAATCCACT
switch fluorescence ratio: 1.028 ± 0.004

TAAAAACTGT
switch fluorescence ratio: 1.02 ± 0.034

CTAAGAGGGC
switch fluorescence ratio: 1.0235 ± 0.00018

TTGGAAAGCA
switch fluorescence ratio: 1.03 ± 0.027

TGCGGTAGGT
switch fluorescence ratio: 0.991 ± 0.018

AATTCCTCAG
switch fluorescence ratio: 1.43 ± 0.1

GGCGGATCAG
switch fluorescence ratio: 0.9827 ± 0.0023

GACGGGCTGG
switch fluorescence ratio: 0.989 ± 0.024

TAAGCCGCGT
switch fluorescence ratio: 1.008 ± 0.0083

AACGTCTTT
switch fluorescence ratio: 1.03 ± 0.071

TTAGTATGCT
switch fluorescence ratio: 0.9864 ± 0.0082

TTAAAAAACG
switch fluorescence ratio: 1.04 ± 0.052

AACTGACGAA
switch fluorescence ratio: 1.29 ± 0.019

TTAAGACGTA
switch fluorescence ratio: 1.03 ± 0.063

GGTGGGAATG
switch fluorescence ratio: 0.99 ± 0.023

ATGTGTTGGT
switch fluorescence ratio: 1 ± 0.011

GTGGAAAAGG
switch fluorescence ratio: 0.966 ± 0.046

GGGAAGGGGG
switch fluorescence ratio: 1 ± 0.034

ATGCACTGGT
switch fluorescence ratio: 1.01 ± 0.026

TATCAGTCGT
switch fluorescence ratio: 0.988 ± 0.032

CAGTGTGGTT
switch fluorescence ratio: 1.11 ± 0.24

TTAGATACAT
switch fluorescence ratio: 1 ± 0.019

AAGGAATTGG
switch fluorescence ratio: 0.992 ± 0.0042

GGAAGGGGTT
switch fluorescence ratio: 1.03 ± 0.089

CCGGCTTTAG
switch fluorescence ratio: 0.99 ± 0.015

GTTTTTAGGT
switch fluorescence ratio: 0.98 ± 0.021

AGCGAATATT
switch fluorescence ratio: 1.08 ± 0.098

GGGAAGAACT
switch fluorescence ratio: 1.06 ± 0.014

AGTGTGCGGT
switch fluorescence ratio: 0.9491 ± 0.0089

AGAAGTTTGG
switch fluorescence ratio: 0.989 ± 0.012

AGGGTTAAGG
switch fluorescence ratio: 1.017 ± 0.0078

GGGTGGGGTT
switch fluorescence ratio: 0.991 ± 0.017

AAGGTTGCGT
switch fluorescence ratio: 0.986 ± 0.04
